Laboratory results taken from US20250313641A1 (Amgen, published 2025).
Residue numbers refer to the chain shown, from its start. Numbers in names are those of the source. Values belong to the binder of their own block, whether it stands above or below them.

Experiments:
[1] = target: T1, human IL-2 receptor (IL-2R) on human PBMC subsets (human, UniProt P14784 27-551; P31785 23-369); assay: cell-based or functional assay
T1 sequence 1: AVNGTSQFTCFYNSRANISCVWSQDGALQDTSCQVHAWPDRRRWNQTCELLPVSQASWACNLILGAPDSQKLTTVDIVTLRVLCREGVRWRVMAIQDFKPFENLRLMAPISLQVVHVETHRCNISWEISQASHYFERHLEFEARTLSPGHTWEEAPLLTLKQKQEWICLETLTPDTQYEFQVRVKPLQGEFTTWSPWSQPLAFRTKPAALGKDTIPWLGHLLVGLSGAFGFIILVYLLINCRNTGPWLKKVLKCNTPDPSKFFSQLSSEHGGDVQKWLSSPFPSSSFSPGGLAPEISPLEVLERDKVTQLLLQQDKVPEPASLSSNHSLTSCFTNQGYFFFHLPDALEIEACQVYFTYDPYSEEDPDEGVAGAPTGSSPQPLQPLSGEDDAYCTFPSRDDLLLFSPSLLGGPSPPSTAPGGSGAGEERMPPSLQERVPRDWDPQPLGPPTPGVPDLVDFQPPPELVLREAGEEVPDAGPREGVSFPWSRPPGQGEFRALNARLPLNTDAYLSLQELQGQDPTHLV
T1 sequence 2: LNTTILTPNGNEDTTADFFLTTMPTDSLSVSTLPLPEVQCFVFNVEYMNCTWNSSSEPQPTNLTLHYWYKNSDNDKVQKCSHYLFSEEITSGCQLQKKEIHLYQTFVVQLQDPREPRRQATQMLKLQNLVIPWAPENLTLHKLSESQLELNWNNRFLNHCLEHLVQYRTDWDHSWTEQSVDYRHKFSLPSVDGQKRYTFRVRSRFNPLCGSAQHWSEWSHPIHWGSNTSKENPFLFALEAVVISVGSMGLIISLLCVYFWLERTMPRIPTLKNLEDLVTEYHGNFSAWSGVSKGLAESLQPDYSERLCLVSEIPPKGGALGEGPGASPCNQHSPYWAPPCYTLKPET

[2] = target: T1, human IL-2 receptor (IL-2R) on human …; assay: cell-based or functional assay; remark: listed apart in the source
[3] = target: T2, cynomolgus monkey IL-2 receptor (IL-2R) on cyno PBMC subsets (cynomolgus monkey, UniProt Q38J85 27-551; A0A2K5VGJ6 23-369); assay: cell-based or functional assay
T2 sequence (looked up) 1: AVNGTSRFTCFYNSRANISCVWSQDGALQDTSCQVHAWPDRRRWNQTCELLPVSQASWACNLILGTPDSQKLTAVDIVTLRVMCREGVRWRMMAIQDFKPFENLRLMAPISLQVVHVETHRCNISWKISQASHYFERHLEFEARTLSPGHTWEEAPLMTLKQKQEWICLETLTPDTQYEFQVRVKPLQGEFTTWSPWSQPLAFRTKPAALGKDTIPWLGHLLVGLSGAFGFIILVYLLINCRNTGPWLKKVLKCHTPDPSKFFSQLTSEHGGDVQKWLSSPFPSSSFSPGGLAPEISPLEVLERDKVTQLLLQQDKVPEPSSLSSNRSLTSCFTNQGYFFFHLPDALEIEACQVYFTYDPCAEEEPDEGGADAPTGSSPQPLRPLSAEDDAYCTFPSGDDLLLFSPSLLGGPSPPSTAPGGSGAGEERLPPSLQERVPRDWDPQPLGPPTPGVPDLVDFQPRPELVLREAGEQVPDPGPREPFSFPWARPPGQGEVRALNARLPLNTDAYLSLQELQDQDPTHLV
T2 sequence (looked up) 2: T1 sequence 2 with T14A, A16T, T22S, H141R, T228S, A326P

[4] = target: T1, human IL-2 receptor (IL-2R) on human …; assay: cell-based or functional assay; remark: listed apart in the source
[5] = target: T2, cynomolgus monkey IL-2 receptor (IL-2R) …; assay: cell-based or functional assay; remark: listed apart in the source
[6] = target: T1, human IL-2 receptor (IL-2R) on human …; assay: cell-based or functional assay; remark: listed apart in the source
[7] = target: T1, human IL-2 receptor (IL-2R) on human …; assay: Flow cytometry on human PBMCs gated on CD4+ T-cells; detection with goat F(ab')2 anti-human IgG-PE; gMFI as fold over background
Description: (§1) All washes and dilutions of cells, antibodies, and reagents were performed using flow buffer (1×PBS, 1% BSA, 0.1% NaN3, pH 7.4). All incubations were performed at 4° C. or on ice. Freshly thawed PBMCs were seeded at 100,000 cells/well in a 96-well round bottom plate (Corning) and incubated for 30 minutes with serially diluted test articles in a total volume of 50 μL. Cells were washed twice with 200 μL flow buffer and subsequently stained with a 0.625 μg/mL Goat F (ab′) 2 Anti-Human IgG-PE (Southern Biotech) secondary detection antibody. Fluorescently conjugated anti-CD3 (OKT3), CD4 (OKT4), CD8 (RPA-T8), CD25 (M-A251), CD127 (A019D5), and CD56 (HCD56) antibodies (BioLegend) were also included at 1:20 dilution to enable the characterization of T-cell and NK cell populations. Following a 30-minute incubation, and 2 more washes, the cells were resuspended in a final volume of 120 μL of flow buffer containing 7-AAD viability dye. The cells were analyzed on a BD FACSCelesta™, maximum events were collected, and geometric mean fluorescence intensity was plotted as a fold-over-background (cells incubated with secondary detection antibody and cell lineage marker stains only).
(§2) Cell binding was determined by flow cytometry and reported as geometric mean fluorescent intensity (gMFI) over the gMFI of cells stained only with secondary detection antibody.

[8] = target: T1, human IL-2 receptor (IL-2R) on human …; assay: Flow cytometry on human PBMCs gated on CD8+ T-cells; detection with goat F(ab')2 anti-human IgG-PE; gMFI as fold over background
Description: as §1, §2

[9] = target: T2, cynomolgus monkey IL-2 receptor (IL-2R) …; assay: Flow cytometry on cynomolgus PBMCs gated on CD3-CD159a+ NK cells; detection with anti-human IgG-PE; gMFI as fold over background
[10] = target: T2, cynomolgus monkey IL-2 receptor (IL-2R) …; assay: Flow cytometry on cynomolgus PBMCs gated on CD4+CD25+CD127lo T-regs; detection with anti-human IgG-PE; gMFI as fold over background
[11] = target: T1, human IL-2 receptor (IL-2R) on human …; assay: Flow cytometry on human PBMCs gated on CD3-CD56+ NK cells; detection with goat F(ab')2 anti-human IgG-PE; gMFI as fold over background
Description: as §1, §2

[12] = target: T1, human IL-2 receptor (IL-2R) on human …; assay: Flow cytometry on human PBMCs gated on CD4+CD25+CD127lo T-regs; detection with goat F(ab')2 anti-human IgG-PE; gMFI as fold over background
Description: as §1, §2

pSTAT5 (Human) EC50 [nM], CD4^+ T cells [1]: 22.9 nM | pSTAT5 (Human) EC50 [nM], CD8^+ T cells [1]: 15.5 nM | pSTAT5 (Human) EC50 [nM], NK cells [1]: 8.77 nM | pSTAT5 (Human) EC50 [nM], T-regs [1]: 13.1 nM | Ki67 (Human) EC50 [nM], CD4^+ T cells [2]: 13.2 nM | Ki67 (Human) EC50 [nM], CD8^+ T cells [2]: 5.17 nM | Ki67 (Human) EC50 [nM], NK cells [2]: 7.34 nM | Ki67 (Human) EC50 [nM], T-regs [2]: 0.81 nM | Ki67 (Cyno) EC50 [nM], CD4^+ T cells [3]: 14.7 nM | Ki67 (Cyno) EC50 [nM], CD8^+ T cells [3]: 14.8 nM | Ki67 (Cyno) EC50 [nM], NK cells [3]: 5.97 nM | Ki67 (Cyno) EC50 [nM], T-regs [3]: 1.25 nM | pSTAT5 (Human) EC50 [nM], CD4^+ T-cell [4]: 34.9 nM | pSTAT5 (Human) EC50 [nM], CD4^+CD25^+ T-regs [4]: 10.7 nM | pSTAT5 (Human) EC50 [nM], CD8^+ T-cell [4]: 21.5 nM | pSTAT5 (Cyno) EC50 [nM], CD4^+ T-cell [5]: 7.72 nM | pSTAT5 (Cyno) EC50 [nM], CD4^+CD25^+ T-regs [5]: 5.37 nM | pSTAT5 (Cyno) EC50 [nM], CD8^+ T-cell [5]: 3.31 nM | Ki67 (Human) EC50 [nM], CD4^+ T-cell [6]: 23.7 nM | Ki67 (Human) EC50 [nM], CD4^+CD25^+ T-regs [6]: 9.26 nM | Ki67 (Human) EC50 [nM], CD8^+ T-cell [6]: 25.1 nM | EC50 (read off the curve) [7]: ~30 nM | EC50 (read off the curve) [8]: ~20 nM | EC50 (read off the curve) [9]: ~2 nM | EC50 (read off the curve) [10]: ~8 nM | EC50 (read off the curve) [11]: ~2 nM | EC50 (read off the curve) [12]: ~10 nM
B1: HCAb1 (bispecific antibody, IgG1)
heavy 1: not shown
heavy 2: QVQLVESGGGLVKPGGSLRLSCAASGFTFSDYYMSWIRQAPGKGLEWVSYISSSGSTIYYADSVKGRFTISRDNAKNSLYLQMNSLRAEDTAVYYCARGDAVSITGDYRGQGTLVTVSSGGGGDKTHTCPPCPAPELLGGPSVFLFPPKPKDTLMISRTPEVTCVVVDVSHEDPEVKFNWYVDGVEVHNAKTKPCEEQYGSTYRCVSVLTVLHQDWLNGKEYKCKVSNKALPAPIEKTISKAKGQPREPQVYTLPPSRKEMTKNQVSLTCLVKGFYPSDIAVEWESNGQPENNYKTTPPVLKSDGSFFLYSKLTVDKSRWQQGNVFSCSVMHEALHNHYTQKSLSLSPGK
notes: Heavy-chain antibody without light chains, made of two different heavy chains; The IgG1-derived Fc carries SEFL2.2 mutations (R292C, N297G, V302C) and charge-pair substitutions; also called anti-IL2RBG heavy-chain antibody

pSTAT5 (Human) EC50 [nM], CD4^+ T-cell [4]: 44.6 nM | pSTAT5 (Human) EC50 [nM], CD4^+CD25^+ T-regs [4]: 13.2 nM | pSTAT5 (Human) EC50 [nM], CD8^+ T-cell [4]: 24 nM | pSTAT5 (Cyno) EC50 [nM], CD4^+ T-cell [5]: 9.36 nM | pSTAT5 (Cyno) EC50 [nM], CD4^+CD25^+ T-regs [5]: 4.29 nM | pSTAT5 (Cyno) EC50 [nM], CD8^+ T-cell [5]: 3.13 nM | Ki67 (Human) EC50 [nM], CD4^+ T-cell [6]: 23.9 nM | Ki67 (Human) EC50 [nM], CD4^+CD25^+ T-regs [6]: 14.6 nM | Ki67 (Human) EC50 [nM], CD8^+ T-cell [6]: 36.5 nM
B2: HCAb2 (bispecific antibody, human IgG4 S228P, F234A L235A)
heavy 1: QVQLQESSPGLVKPSETLSLTCTVSGGSISSSNWWSWVRQPPGKGLEWIGEISHSGSTNYNPSLKSRVTISVDKSKNQFSLRLSSVTAADTAVYFCGRGSWELTDAFDIRGQGTLVTVSSESKYGPPCPPCPAPEAAGGPSVFLFPPKPKDTLMISRTPEVTCVVVDVSQEDPEVQFNWYVDGVEVHNAKTKPREEQFNSTYRVVSVLTVLHQDWLNGKEYKCKVSNKGLPSSIEKTISKAKGQPREPQVYTLPPSQEEMTKNQVSLSCAVKGFYPSDIAVEWESNGQPENNYKTTPPVLDSDGSFFLVSRLTVDKSRWQEGNVFSCSVMHEALHNHYTQKSLSLSLGK
heavy 2: QVQLVESGGGLVKPGGSLRLSCAASGFTFSDYYMSWIRQAPGKGLEWVSYISSSGSTIYYADSVKGRFTISRDNAKNSLYLQMNSLRAEDTAVYYCARGDAVSITGDYRGQGTLVTVSSESKYGPPCPPCPAPEAAGGPSVFLFPPKPKDTLMISRTPEVTCVVVDVSQEDPEVQFNWYVDGVEVHNAKTKPREEQFNSTYRVVSVLTVLHQDWLNGKEYKCKVSNKGLPSSIEKTISKAKGQPREPQVYTLPPSQEEMTKNQVSLWCLVKGFYPSDIAVEWESNGQPENNYKTTPPVLDSDGSFFLYSRLTVDKSRWQEGNVFSCSVMHEALHNHYTQKSLSLSLGK
